Experimental data from patent publication US20240067748A1 (NONA BIOSCIENCES SUZHOU, published 2024).
Changes are numbered by the printed parent chain.

B1: PR001132 (antibody, human IgG1, kappa, V domains shown)
VH: QVELVESGGGVVQPGRSLRLSCGASGFTFSSYNMYWVRQAPGKGLEWVAGIWDDGNNKYYANSVKGRFTISRDNSKNTLYLQMNSLRTEDTALYYCAKDGWGSYGEYFQHWGQGTLVTVSS
VL: DIQMTQSPSSLSASVGERVTITCRASQNINSYLSWYQQKPGKAPKLLIYAASSLQNGVPSRFSGSGSGTDFTLTISSLQPEDFATYYCQQSFSTPPITFGQGTRLEIKR
notes: fully human IgG1/kappa; also called antibody No. (4)
B2: PR001171 (antibody, human IgG1, kappa, V domains shown)
VH: QVQLVESGGGVVQPGRSLRLSCAASGFTFSHYGMHWVRQAPGKGLEWVAVIWYDGIKKNYVESVKGRFTISRDNSKNTLNLQMNRLRAEDTAVYYCARDGGFGESNYYGLDVWGQGTTVTVSS
VL: DIQLTQSPSFLSASVGDRVTITCRASQGISSYLGWYQQKPGKAPKLLIYIASTLQSGVPSRFSGSGSGTEFTLTISSLQPEDFATYYCQQLNSYPYTFGQGTKLEIKR
notes: fully human IgG1/kappa; also called antibody No. (30)
B3: PR001150 (antibody, human IgG1, kappa, V domains shown)
VH: B2 VH with G15E, R16K, A40V, K58R, N59Y, N80Y
VL: B2 VL with S30N, Q38R
notes: fully human IgG1/kappa; also called antibody No. (13)
B4: PR001151 (antibody, human IgG1, kappa, V domains shown)
VH: B2 VH with N59D, N80Y, S105L
VL: B2 VL with I50V
notes: fully human IgG1/kappa; also called antibody No. (14)
B5: PR001156 (antibody, human IgG1, kappa, V domains shown)
VH: B2 VH with A23E, A24G, E62D, V64L, N80Y, R85S, S105L, L110M
VL: B2 VL
notes: fully human IgG1/kappa; also called antibody No. (19)
B6: PR001155 (antibody, human IgG1, kappa, V domains shown)
VH: B2 VH with E6Q, N59Y, N80Y, S105L
VL: B2 VL with I50V
notes: fully human IgG1/kappa; also called antibody No. (18)
B7: PR001159 (antibody, human IgG1, kappa, V domains shown)
VH: B2 VH with A23E, K58T
VL: B2 VL
notes: fully human IgG1/kappa; also called antibody No. (21)
B8: PR001152 (antibody, human IgG1, kappa, V domains shown)
VH: B2 VH with G10A, K58S, N59Y, N80Y, N84D
VL: B2 VL with S30N, Q38R
notes: fully human IgG1/kappa; also called antibody No. (15)
B9: PR001158 (antibody, human IgG1, kappa, V domains shown)
VH: B2 VH with A23V, N59Y
VL: B2 VL
notes: fully human IgG1/kappa; also called antibody No. (20)
B10: PR001154 (antibody, human IgG1, kappa, V domains shown)
VH: B2 VH with A23E, N59Y, V61I, T69I, N80Y, S105L
VL: B2 VL with I50V
notes: fully human IgG1/kappa; also called antibody No. (17)
B11: PR001138 (antibody, human IgG1, kappa, V domains shown)
VH: QVQLQESGPRLVKPSETLSLTCAVSGYSISSGYYWGWIRQSPGMGLEWIAYIYHDGSTYCNPSLKSRVTMSVDTSKNQFSLKLRSVTAADTAVYYCARDGAAAPFDYWGQGTLVTVSS
VL: DIQMTQSPSTLSASVGDRVTITCRASQSISNWLAWYQQKPGKAPKVLIYKASSLESGVPSRFSGSGSGTEFTLTINSLQPDDFATYYCQQYDSYSITFGQGTRLEIKR
notes: fully human IgG1/kappa; also called antibody No. (7)
B12: PR001170 (antibody, human IgG1, kappa, V domains shown)
VH: QVQLQESGPGLVKPSETLSLTCAVSGYSINSGYFWAWIRQPPGMGLEWIGSIYHSGRTHYNPSLKSRVIISLDTSKNQFSLKLRSVTAADSAVYYCAREGYASGSYYWGQGTLVTVSS
VL: EIVMTQSPATLSVSPGERATLSCRSSQSVNSYLAWFQQKPGQAPRLLIYDSSTRATGIPARFSGSGSGTEFTLTISSLQSEDFAFYFCQQYENWPLTFGGGTKVEIKR
notes: fully human IgG1/kappa; also called antibody No. (29)

Target: T1, human Trop2 on cells (human, UniProt P09758 27-323)
T1 construct: whole, on cells; also called hTrop2; 293T-human Trop2 cells
T1 sequence (looked up): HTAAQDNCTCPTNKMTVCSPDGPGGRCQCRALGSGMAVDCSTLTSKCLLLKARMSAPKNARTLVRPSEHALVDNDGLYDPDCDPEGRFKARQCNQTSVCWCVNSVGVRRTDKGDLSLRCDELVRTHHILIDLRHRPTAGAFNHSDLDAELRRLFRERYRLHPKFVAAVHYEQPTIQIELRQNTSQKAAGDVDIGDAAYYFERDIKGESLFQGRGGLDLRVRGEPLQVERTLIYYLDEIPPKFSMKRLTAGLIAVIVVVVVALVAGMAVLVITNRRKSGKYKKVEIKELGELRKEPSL
Assay: flow cytometry on 293T-human Trop2 cells
Protocol: The cell density was determined, and the cells were resuspended to 1×10⁶ cells/mL in PBS. 100 μL of cell suspension was taken from each well and added to a 96 well V-bottom plate. The 96-well V-bottom plate was centrifuged at 1000 rpm for 5 min and washed once with PBS+0.5% BSA (VWR, #0332-100G). […] After 1 h, the cells were washed twice with PBS+0.5% BSA. The cells were incubated with 100 μL of Alexa Fluor 488 goat anti-human IgG (Life technologies, 1:1000, #A-11013) at 4° C. for 1 h in the dark, and washed twice with PBS+0.5% BSA. The cells were resuspended in 200 μL of PBS+0.5% BSA. The fluorescence intensity of the cells was analyzed using a FACS verse flow cytometer. All procedures were performed on ice.

| Binder | EC50 [nM] | Maximum (MFI) | Top % [%] |
| --- | --- | --- | --- |
| B1 | 0.441 | 6920 | 107 |
| B2 | 0.997 | 6600 | 102 |
| B3 | 0.589 | 6570 | 101 |
| B4 | 1.61 | 7510 | 116 |
| B5 | 1.67 | 7270 | 112 |
| B6 | 2.54 | 7320 | 113 |
| B7 | 0.977 | 6790 | 105 |
| B8 | 1.93 | 7180 | 111 |
| B9 | 1.26 | 6950 | 107 |
| B10 | 2.11 | 7470 | 115 |
| B11 | 0.478 | 6730 | 104 |
| B12 | 0.352 | 6960 | 107 |

Target: T2, monkey Trop2 protein (Sino Biological, #90893-C08H) (monkey, UniProt A0A2K5UE71 27-274)
T2 construct: bought protein; also called monkey Trop2 protein antigen (His tag)
T2 sequence: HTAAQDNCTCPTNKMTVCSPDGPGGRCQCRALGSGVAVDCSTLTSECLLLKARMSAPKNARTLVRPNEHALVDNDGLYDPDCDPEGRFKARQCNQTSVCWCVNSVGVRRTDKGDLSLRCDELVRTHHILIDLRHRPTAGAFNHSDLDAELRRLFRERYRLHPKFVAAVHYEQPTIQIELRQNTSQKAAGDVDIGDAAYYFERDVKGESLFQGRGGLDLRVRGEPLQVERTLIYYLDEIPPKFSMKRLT
Assay: BLI, Octet RED96; ratio against KD for human Trop2 protein
Protocol: (§1) Specifically, a human TROP2 protein (Sino Biological, #10428-H08H) or a monkey Trop2 protein (Sino Biological, #90893-C08H) was diluted to 200 nM with a PBS buffer (pH 7.4) containing 0.1% (w/w) BSA and 0.02% (v/v) tween 20, and incubated with the AHC sensor respectively. 40 nM Trop2 antibody was incubated at 30° C. for 3 min with the AHC sensor loaded with the human Trop2 protein or monkey Trop2 protein respectively. The reaction mixture was incubated at 30° C. for another 5 min in a PBS buffer (pH 7.4) containing 0.1% (v/w) BSA and 0.02% (v/v) Tween 20. The association and dissociation signals between the Trop2 antibody and the human Trop2 protein or monkey Trop2 protein were recorded by Octet Red 96 in real time. The affinity and the association and dissociation constants were determined by Octet using software.

| Binder | KD (monkey)/KD (human) |
| --- | --- |
| B2 | 6.02 |
| B3 | 9.76 |
| B4 | 2.12 |
| B5 | 5.85 |
| B6 | 2.32 |
| B8 | 7.57 |
| B9 | 4.56 |
| B10 | 2.24 |

Target: T3, human TROP2 protein (Sino Biological, #10428-H08H) (human, UniProt P09758 27-274)
T3 construct: bought protein; also called human Trop2 protein antigen (His tag); not shown: His tag
T3 sequence (looked up): T2 sequence with V36M, E46K, N67S, V204I
Assay: BLI, Octet RED96, AHC sensor
Protocol: as §1

| Binder | Kd [nM] | Response | fold lower KD than the reference antibody Tab (hRS7) [fold] | koff [s⁻¹] | kon [M⁻¹ s⁻¹] |
| --- | --- | --- | --- | --- | --- |
| B1 | < 0.001 | 0.417 | ~10 | < 1e-07 | 121000 |
| B2 | 0.0251 | 0.326 |  | 3.74e-06 | 149000 |
| B3 | 0.0326 | 0.382 | ~10 | 5.25e-06 | 161000 |
| B4 | 1.12 | 0.407 |  | 0.000127 | 113000 |
| B5 | 0.0916 | 0.354 |  | 1.67e-05 | 183000 |
| B6 | 1.84 | 0.406 |  | 0.000144 | 78100 |
| B7 | < 0.001 | 0.38 | ~10 | < 1e-07 | 176000 |
| B8 | 0.135 | 0.348 |  | 2.08e-05 | 154000 |
| B9 | 0.155 | 0.433 |  | 2.05e-05 | 132000 |
| B10 | 0.855 | 0.41 |  | 9.23e-05 | 108000 |
| B11 | < 0.001 | 0.338 | ~10 | < 1e-07 | 148000 |
| B12 | < 0.001 | 0.368 |  | < 1e-07 | 476000 |

Target: T2, monkey Trop2 protein (Sino Biological, …)
Assay: BLI, Octet RED96, AHC sensor
Protocol: as §1

| Binder | Kd [nM] | Response | koff [s⁻¹] | kon [M⁻¹ s⁻¹] |
| --- | --- | --- | --- | --- |
| B1 | 0.164 | 0.418 | 1.43e-05 | 86900 |
| B2 | 0.151 | 0.319 | 1.34e-05 | 88300 |
| B3 | 0.319 | 0.344 | 3.41e-05 | 107000 |
| B4 | 2.38 | 0.351 | 0.00018 | 75800 |
| B5 | 0.536 | 0.349 | 6.15e-05 | 115000 |
| B6 | 4.26 | 0.356 | 0.000219 | 51500 |
| B7 | 0.307 | 0.372 | 3.39e-05 | 111000 |
| B8 | 1.02 | 0.343 | 0.000105 | 103000 |
| B9 | 0.708 | 0.406 | 6.23e-05 | 87900 |
| B10 | 1.91 | 0.379 | 0.000139 | 72700 |
| B11 | 0.409 | 0.329 | 3.98e-05 | 97400 |
| B12 | < 0.001 | 0.387 | < 1e-07 | 307000 |
